Experimental data from the supplement of paper PMC9112550, “Optimization of the antimicrobial peptide Bac7 by deep mutational scanning” (BMC Biology, 2022).

System: Escherichia coli TOP10
Experiment: shrunken log2 fold change of peptide-encoding DNA abundance (4.5 h post-induction vs induction); higher = less antimicrobial activity (less host growth inhibition)
Conditions: time post-induction: 4.5 h; library: site-saturation at positions 5, 18, 19, 20
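Also: peptides expressed intracellularly from a pBAD plasmid library in pooled LB shake-flask culture, induced with 0.3% L-arabinose, DNA abundance read by NGS, three biological replicates, DESeq2 with apeglm shrinkage.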

## RRIRARPPRLPRPRPRPYDRPRP
  shrunken log2 fold change: -0.01

## RRIRGRPPRLPRPRPRPYTLPRP
  shrunken log2 fold change: -0.616

## RRIRKRPPRLPRPRPRPVLRPRP
  shrunken log2 fold change: 0.0359

## RRIRIRPPRLPRPRPRPVTRPRP
  shrunken log2 fold change: 0.0796

## RRIRMRPPRLPRPRPRPSLCPRP
  shrunken log2 fold change: 0.694

## RRIRHRPPRLPRPRPRPLTVPRP
  shrunken log2 fold change: -0.0423

## RRIRPRPPRLPRPRPRPCFFPRP
  shrunken log2 fold change: -0.0762

## RRIRQRPPRLPRPRPRPRYRPRP
  shrunken log2 fold change: -0.419

## RRIRMRPPRLPRPRPRPFKIPRP
  shrunken log2 fold change: -0.0716

## RRIRGRPPRLPRPRPRPMNEPRP
  shrunken log2 fold change: 0.056

## RRIRLRPPRLPRPRPRPVNPPRP
  shrunken log2 fold change: 0.0818

## RRIRERPPRLPRPRPRPPLLPRP
  shrunken log2 fold change: -0.0533

## RRIRLRPPRLPRPRPRPADCPRP
  shrunken log2 fold change: 0.142

## RRIRPRPPRLPRPRPRPGEQPRP
  shrunken log2 fold change: 1.29

## RRIRHRPPRLPRPRPRPPSKPRP
  shrunken log2 fold change: -0.122

## RRIRERPPRLPRPRPRPAEIPRP
  shrunken log2 fold change: -0.207

## RRIRDRPPRLPRPRPRPVMSPRP
  shrunken log2 fold change: -0.257

## RRIRYRPPRLPRPRPRPYFRPRP
  shrunken log2 fold change: -0.836

## RRIRGRPPRLPRPRPRPLVRPRP
  shrunken log2 fold change: 0.577

## RRIRRRPPRLPRPRPRPKMTPRP
  shrunken log2 fold change: 0.24

## RRIRRRPPRLPRPRPRPRCNPRP
  shrunken log2 fold change: -0.223

## RRIRERPPRLPRPRPRPYLIPRP
  shrunken log2 fold change: -0.626

## RRIRARPPRLPRPRPRPFRKPRP
  shrunken log2 fold change: 0.00339

## RRIRVRPPRLPRPRPRPWNIPRP
  shrunken log2 fold change: -0.582

## RRIRYRPPRLPRPRPRPEQDPRP
  shrunken log2 fold change: -0.0203

## RRIRTRPPRLPRPRPRPGIFPRP
  shrunken log2 fold change: -0.146

## RRIRPRPPRLPRPRPRPHEYPRP
  shrunken log2 fold change: -0.25

## RRIRSRPPRLPRPRPRPSRGPRP
  shrunken log2 fold change: 0.483

## RRIRHRPPRLPRPRPRPNIKPRP
  shrunken log2 fold change: -0.69

## RRIRNRPPRLPRPRPRPKWPPRP
  shrunken log2 fold change: 0.208

## RRIRHRPPRLPRPRPRPMHDPRP
  shrunken log2 fold change: -0.0353

## RRIRVRPPRLPRPRPRPHCDPRP
  shrunken log2 fold change: -0.401

## RRIRERPPRLPRPRPRPDMDPRP
  shrunken log2 fold change: 0.0527

## RRIRTRPPRLPRPRPRPFIVPRP
  shrunken log2 fold change: -0.265

## RRIRDRPPRLPRPRPRPDVIPRP
  shrunken log2 fold change: 0.00273

## RRIRHRPPRLPRPRPRPLTIPRP
  shrunken log2 fold change: -0.207

## RRIRGRPPRLPRPRPRPPIMPRP
  shrunken log2 fold change: 0.375

## RRIRIRPPRLPRPRPRPVWAPRP
  shrunken log2 fold change: -0.0187

## RRIRCRPPRLPRPRPRPHEHPRP
  shrunken log2 fold change: 1.94

## RRIRSRPPRLPRPRPRPHCYPRP
  shrunken log2 fold change: -0.302

## RRIRHRPPRLPRPRPRPQSKPRP
  shrunken log2 fold change: -0.342

## RRIRVRPPRLPRPRPRPIEQPRP
  shrunken log2 fold change: -0.14

## RRIRLRPPRLPRPRPRPAGIPRP
  shrunken log2 fold change: -0.043

## RRIRKRPPRLPRPRPRPKWMPRP
  shrunken log2 fold change: -0.168

## RRIRWRPPRLPRPRPRPTRMPRP
  shrunken log2 fold change: 0.381

## RRIRKRPPRLPRPRPRPQNQPRP
  shrunken log2 fold change: 0.0634

## RRIRQRPPRLPRPRPRPLIKPRP
  shrunken log2 fold change: -0.249

## RRIRTRPPRLPRPRPRPWINPRP
  shrunken log2 fold change: 0.0189

## RRIRNRPPRLPRPRPRPGNYPRP
  shrunken log2 fold change: 0.224

## RRIRARPPRLPRPRPRPNTAPRP
  shrunken log2 fold change: 0.181
